From IntAct's records for PubMed 29892012

B1: Cysteine/serine-rich nuclear protein 2 (Homo sapiens), Q9H175 (parent)
chain: MDAFTGSGLKRKFDDVDVGSSVSNSDDEISSSDSADSCDSLNPPTTASFTPTSILKRQKQLRRKNVRFDQVTVYYFARRQGFTSVPSQGGSSLGMAQRHNSVRSYTLCEFAQEQEVNHREILREHLKEEKLHAKKMKLTKNGTVESVEADGLTLDDVSDEDIDVENVEVDDYFFLQPLPTKRRRALLRASGVHRIDAEEKQELRAIRLSREECGCDCRLYCDPEACACSQAGIKCQVDRMSFPCGCSRDGCGNMAGRIEFNPIRVRTHYLHTIMKLELESKRQVSRPAAPDEEPSPTASCSLTGAQGSETQDFQEFIAENETAVMHLQSAEELERLKAEEDSSGSSASLDSSIESLGVCILEEPLAVPEELCPGLTAPILIQAQLPPGSSVLCFTENSDHPTASTVNSPSYLNSGPLVYYQVEQRPVLGVKGEPGTEEGSASFPKEKDLNVFSLPVTSLVACSSTDPAALCKSEVGKTPTLEALLPEDCNPEEPENEDFHPSWSPSSLPFRTDNEEGCGMVKTSQQNEDRPPEDSSLELPLAV
B2: Chaperone Ric-8A (Homo sapiens), Q9NPQ8 (parent)
chain: MEPRAVAEAVETGEEDVIMEALRSYNQEHSQSFTFDDAQQEDRKRLAELLVSVLEQGLPPSHRVIWLQSVRILSRDRNCLDPFTSRQSLQALACYADISVSEGSVPESADMDVVLESLKCLCNLVLSSPVAQMLAAEARLVVKLTERVGLYRERSFPHDVQFFDLRLLFLLTALRTDVRQQLFQELKGVRLLTDTLELTLGVTPEGNPPPTLLPSQETERAMEILKVLFNITLDSIKGEVDEEDAALYRHLGTLLRHCVMIATAGDRTEEFHGHAVNLLGNLPLKCLDVLLTLEPHGDSTEFMGVNMDVIRALLIFLEKRLHKTHRLKESVAPVLSVLTECARMHRPARKFLKAQVLPPLRDVRTRPEVGEMLRNKLVRLMTHLDTDVKRVAAEFLFVLCSESVPRFIKYTGYGNAAGLLAARGLMAGGRPEGQYSEDEDTDTDEYKEAKASINPVTGRVEEKPPNPMEGMTEEQKEHEAMKLVTMFDKLSRNRVIQPMGMSPRGHLTSLQDAMCETMEQQLSSDPDSDPD
B3: Glycodelin (Homo sapiens), P09466 (parent)
chain: MLCLLLTLGVALVCGVPAMDIPQTKQDLELPKLAGTWHSMAMATNNISLMATLKAPLRVHITSLLPTPEDNLEIVLHRWENNSCVEKKVLGEKTENPKKFKINYTVANEATLLDTDYDNFLFLCLQDTTTPIQSMMCQYLARVLVEDDEIMQGFIRAFRPLPRHLWYLLDLKQMEEPCRF
partner: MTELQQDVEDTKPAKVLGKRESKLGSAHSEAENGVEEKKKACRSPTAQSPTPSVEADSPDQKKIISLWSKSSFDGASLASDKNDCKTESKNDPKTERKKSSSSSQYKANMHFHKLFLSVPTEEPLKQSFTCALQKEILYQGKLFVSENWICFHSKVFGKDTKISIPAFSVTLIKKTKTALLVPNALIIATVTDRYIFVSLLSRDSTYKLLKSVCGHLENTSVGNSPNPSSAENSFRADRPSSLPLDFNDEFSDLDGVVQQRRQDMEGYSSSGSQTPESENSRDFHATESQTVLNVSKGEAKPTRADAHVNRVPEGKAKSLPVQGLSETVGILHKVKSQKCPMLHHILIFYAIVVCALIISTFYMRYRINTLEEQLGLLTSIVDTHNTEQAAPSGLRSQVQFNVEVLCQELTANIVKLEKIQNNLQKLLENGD
B4: Zyxin (Homo sapiens), Q15942 (parent)
chain: MAAPRPSPAISVSVSAPAFYAPQKKFGPVVAPKPKVNPFRPGDSEPPPAPGAQRAQMGRVGEIPPPPPEDFPLPPPPLAGDGDDAEGALGGAFPPPPPPIEESFPPAPLEEEIFPSPPPPPEEEGGPEAPIPPPPQPREKVSSIDLEIDSLSSLLDDMTKNDPFKARVSSGYVPPPVATPFSSKSSTKPAAGGTAPLPPWKSPSSSQPLPQVPAPAQSQTQFHVQPQPQPKPQVQLHVQSQTQPVSLANTQPRGPPASSPAPAPKFSPVTPKFTPVASKFSPGAPGGSGSQPNQKLGHPEALSAGTGSPQPPSFTYAQQREKPRVQEKQHPVPPPAQNQNQVRSPGAPGPLTLKEVEELEQLTQQLMQDMEHPQRQNVAVNELCGRCHQPLARAQPAVRALGQLFHIACFTCHQCAQQLQGQQFYSLEGAPYCEGCYTDTLEKCNTCGEPITDRMLRATGKAYHPHCFTCVVCARPLEGTSFIVDQANRPHCVPDYHKQYAPRCSVCSEPIMPEPGRDETVRVVALDKNFHMKCYKCEDCGKPLSIEADDNGCFPLDGHVLCRKCHTARAQT
partner: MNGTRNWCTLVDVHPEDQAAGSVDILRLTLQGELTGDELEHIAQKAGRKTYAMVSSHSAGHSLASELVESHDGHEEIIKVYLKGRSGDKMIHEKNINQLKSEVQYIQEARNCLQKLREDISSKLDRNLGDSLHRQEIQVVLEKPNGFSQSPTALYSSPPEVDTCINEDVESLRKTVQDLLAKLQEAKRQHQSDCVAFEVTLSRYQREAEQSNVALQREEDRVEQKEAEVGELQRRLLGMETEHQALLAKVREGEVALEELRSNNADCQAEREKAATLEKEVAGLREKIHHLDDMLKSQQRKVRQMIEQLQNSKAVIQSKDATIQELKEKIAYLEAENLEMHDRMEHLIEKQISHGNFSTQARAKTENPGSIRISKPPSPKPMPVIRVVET
B5: Atos homolog protein B (Homo sapiens), Q7L5A3 (parent)
chain: MRHVQAEPSPSSEPEAGPSQPPVRQGALQGGLLMGYSPAGGATSPGVYQVSIFSPPAGTSEPHRALKRQAPSTEGPRELKRGPGLGAREGLPPEEPSTVGLLGPEGPGLGLGVASQHFSHRGLCVVEQRSSVTSSWTSGAWSPPCPPSNASCNTLHTRDWASPDPGGQGSLGESPGPAPPGQLHTLDTDLHSLAQIGGKSPVAGVGNGGSLWPRESPGTANGHSPEHTPPGPGPPGPCPTKRRLLPAGEAPDVSSEEEGPAPRRRRGSLGHPTAANSSDAKATPFWSHLLPGPKEPVLDPTDCGPMGRRLKGARRLKLSPLRSLRKGPGLLSPPSASPVPTPAVSRTLLGNFEESLLRGRFAPSGHIEGFTAEIGASGSYCPQHVTLPVTVTFFDVSEQNAPAPFLGIVDLNPLGRKGYSVPKVGTVQVTLFNPNQTVVKMFLVTFDFSDMPAAHMTFLRHRLFLVPVGEEGNANPTHRLLCYLLHLRFRSSRSGRLSLHGDIRLLFSRRSLELDTGLPYELQAVTEAPHNPRYSPLP
partner: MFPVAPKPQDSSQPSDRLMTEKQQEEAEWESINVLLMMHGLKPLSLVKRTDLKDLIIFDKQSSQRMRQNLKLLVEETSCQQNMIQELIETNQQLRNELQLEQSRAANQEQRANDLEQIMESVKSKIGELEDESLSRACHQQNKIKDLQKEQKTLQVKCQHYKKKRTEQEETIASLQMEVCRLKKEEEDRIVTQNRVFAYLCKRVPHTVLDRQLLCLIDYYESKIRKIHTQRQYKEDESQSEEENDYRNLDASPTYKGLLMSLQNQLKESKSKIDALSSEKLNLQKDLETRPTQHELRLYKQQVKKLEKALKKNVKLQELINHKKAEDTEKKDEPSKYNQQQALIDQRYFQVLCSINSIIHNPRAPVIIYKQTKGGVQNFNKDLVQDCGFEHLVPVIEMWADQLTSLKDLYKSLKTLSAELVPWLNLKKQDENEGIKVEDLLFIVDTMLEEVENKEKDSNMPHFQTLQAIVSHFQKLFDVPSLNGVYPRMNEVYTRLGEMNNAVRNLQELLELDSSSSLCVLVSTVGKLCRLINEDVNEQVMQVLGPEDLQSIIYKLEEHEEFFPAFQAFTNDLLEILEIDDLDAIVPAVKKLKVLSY
B6: Transcription factor RFX3 (Homo sapiens), P48380 (parent)
chain: MQTSETGSDTGSTVTLQTSVASQAAVPTQVVQQVPVQQQVQQVQTVQQVQHVYPAQVQYVEGSDTVYTNGAIRTTTYPYTETQMYSQNTGGNYFDTQGSSAQVTTVVSSHSMVGTGGIQMGVTGGQLISSSGGTYLIGNSMENSGHSVTHTTRASPATIEMAIETLQKSDGLSTHRSSLLNSHLQWLLDNYETAEGVSLPRSTLYNHYLRHCQEHKLDPVNAASFGKLIRSIFMGLRTRRLGTRGNSKYHYYGIRVKPDSPLNRLQEDMQYMAMRQQPMQQKQRYKPMQKVDGVADGFTGSGQQTGTSVEQTVIAQSQHHQQFLDASRALPEFGEVEISSLPDGTTFEDIKSLQSLYREHCEAILDVVVNLQFSLIEKLWQTFWRYSPSTPTDGTTITESSNLSEIESRLPKAKLITLCKHESILKWMCNCDHGMYQALVEILIPDVLRPIPSALTQAIRNFAKSLEGWLSNAMNNIPQRMIQTKVAAVSAFAQTLRRYTSLNHLAQAARAVLQNTSQINQMLSDLNRVDFANVQEQASWVCQCDDNMVQRLETDFKMTLQQQSTLEQWAAWLDNVMMQALKPYEGRPSFPKAARQFLLKWSFYSSMVIRDLTLRSAASFGSFHLIRLLYDEYMFYLVEHRVAQATGETPIAVMGEFGDLNAVSPGNLDKDEGSEVESEMDEELDDSSEPQAKREKTELSQAFPVGCMQPVLETGVQPSLLNPIHSEHIVTSTQTIRQCSATGNTYTAV
partner: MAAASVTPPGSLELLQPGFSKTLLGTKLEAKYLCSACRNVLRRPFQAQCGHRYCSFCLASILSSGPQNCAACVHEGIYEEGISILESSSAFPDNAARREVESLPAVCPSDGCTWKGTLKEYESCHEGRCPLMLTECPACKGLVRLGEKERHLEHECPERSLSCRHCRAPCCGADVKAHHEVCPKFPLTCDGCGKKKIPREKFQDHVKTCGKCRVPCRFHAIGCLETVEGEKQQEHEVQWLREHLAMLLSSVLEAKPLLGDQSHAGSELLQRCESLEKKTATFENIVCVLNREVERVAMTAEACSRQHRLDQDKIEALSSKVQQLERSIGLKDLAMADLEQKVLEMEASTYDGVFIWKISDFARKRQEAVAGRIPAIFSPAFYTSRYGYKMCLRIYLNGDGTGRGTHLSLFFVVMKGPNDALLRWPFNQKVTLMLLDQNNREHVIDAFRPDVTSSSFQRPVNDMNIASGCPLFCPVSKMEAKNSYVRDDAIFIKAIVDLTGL
B7: Myotubularin-related protein 9 (Homo sapiens), Q96QG7 (parent)
chain: MEFAELIKTPRVDNVVLHRPFYPAVEGTLCLTGHHLILSSRQDNTEELWLLHSNIDAIDKRFVGSLGTIIIKCKDFRIIQLDIPGMEECLNIASSIEALSTLDSITLMYPFFYRPMFEVIEDGWHSFLPEQEFELYSSATSEWRLSYVNKEFAVCPSYPPIVTVPKSIDDEALRKVATFRHGGRFPVLSYYHKKNGMVIMRSGQPLTGTNGRRCKEDEKLINATLRAGKRGYIIDTRSLNVAQQTRAKGGGFEQEAHYPQWRRIHKSIERYHILQESLIKLVEACNDQTHNMDRWLSKLEASNWLTHIKEILTTACLAAQCIDREGASILIHGTEGTDSTLQVTSLAQIILEPRSRTIRGFEALIEREWLQAGHPFQQRCAQSAYCNTKQKWEAPVFLLFLDCVWQILRQFPCSFEFNENFLIMLFEHAYASQFGTFLGNNESERCKLKLQQKTMSLWSWVNQPSELSKFTNPLFEANNLVIWPSVAPQSLPLWEGIFLRWNRSSKYLDEAYEEMVNIIEYNKELQAKVNILRRQLAELETEDGMQESP
partner: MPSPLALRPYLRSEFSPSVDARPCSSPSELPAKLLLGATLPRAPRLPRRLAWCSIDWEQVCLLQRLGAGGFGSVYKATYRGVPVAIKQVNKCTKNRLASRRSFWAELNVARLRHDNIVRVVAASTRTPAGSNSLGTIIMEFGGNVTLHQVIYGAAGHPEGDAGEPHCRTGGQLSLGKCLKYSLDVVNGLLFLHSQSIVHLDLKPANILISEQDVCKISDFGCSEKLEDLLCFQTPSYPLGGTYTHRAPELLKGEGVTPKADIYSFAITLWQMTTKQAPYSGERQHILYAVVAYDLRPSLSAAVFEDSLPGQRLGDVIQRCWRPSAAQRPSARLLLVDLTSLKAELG
B8: Cell division cycle-associated 7-like protein (Homo sapiens), Q96GN5 (parent)
chain: MELATRYQIPKEVADIFNAPSDDEEFVGFRDDVPMETLSSEESCDSFDSLESGKQQDVRFHSKYFTEELRRIFIEDTDSETEDFAGFTQSDLNGKTNPEVMVVESDLSDDGKASLVSEEEEDEEEDKATPRRSRSRRSSIGLRVAFQFPTKKLANKPDKNSSSEQLFSSARLQNEKKTILERKKDCRQVIQREDSTSESEDDSRDESQESSDALLKRTMNIKENKAMLAQLLAELNSMPDFFPVRTPTSASRKKTVRRAFSEGQITRRMNPTRSARPPEKFALENFTVSAAKFAEEFYSFRRRKTIGGKCREYRRRHRISSFRPVEDITEEDLENVAITVRDKIYDKVLGNTCHQCRQKTIDTKTVCRNQGCCGVRGQFCGPCLRNRYGEDVRSALLDPDWVCPPCRGICNCSYCRKRDGRCATGILIHLAKFYGYDNVKEYLESLQKELVEDN
partner: B5 partner

Variants of: B1
Conditions: with pp1g_human PPP1CC

effect of a mutation on the interaction	Variant
with no effect	Q382E

Variants of: B2
Conditions: with praf1_human RABAC1, Q9UI14
Sequence of praf1_human RABAC1, Q9UI14 (Q9UI14 whole entry): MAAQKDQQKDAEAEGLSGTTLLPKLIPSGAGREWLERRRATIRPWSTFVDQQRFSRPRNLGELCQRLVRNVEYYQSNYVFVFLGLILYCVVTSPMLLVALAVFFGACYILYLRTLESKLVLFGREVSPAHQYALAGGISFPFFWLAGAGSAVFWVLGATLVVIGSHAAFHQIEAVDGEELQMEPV

effect of a mutation on the interaction	Variant
with no effect	K319E

Variants of: B2
Conditions: with ubql1_human UBQLN1, Q9UMX0
Sequence of ubql1_human UBQLN1, Q9UMX0 (Q9UMX0 whole entry): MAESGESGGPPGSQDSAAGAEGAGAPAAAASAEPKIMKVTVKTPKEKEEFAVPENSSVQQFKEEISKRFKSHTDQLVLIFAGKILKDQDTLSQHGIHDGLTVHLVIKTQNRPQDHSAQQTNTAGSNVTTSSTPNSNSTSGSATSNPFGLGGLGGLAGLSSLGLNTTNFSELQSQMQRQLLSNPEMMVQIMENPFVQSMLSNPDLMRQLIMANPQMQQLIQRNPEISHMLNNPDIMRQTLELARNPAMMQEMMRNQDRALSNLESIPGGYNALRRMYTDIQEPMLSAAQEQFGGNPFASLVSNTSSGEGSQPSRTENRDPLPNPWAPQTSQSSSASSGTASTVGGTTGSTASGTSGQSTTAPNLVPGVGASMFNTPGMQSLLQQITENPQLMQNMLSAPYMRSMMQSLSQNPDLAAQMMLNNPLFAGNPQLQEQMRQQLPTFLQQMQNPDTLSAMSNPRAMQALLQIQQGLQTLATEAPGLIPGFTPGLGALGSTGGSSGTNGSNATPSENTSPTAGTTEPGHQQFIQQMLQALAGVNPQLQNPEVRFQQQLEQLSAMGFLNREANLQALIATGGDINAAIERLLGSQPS

effect of a mutation on the interaction	Variant
with no effect	K319E

Variants of: B2
Conditions: with sdcb1_human SDCBP

effect of a mutation on the interaction	Variant
with no effect	K319E

Variants of: B2
Conditions: with nutm1_human NUTM1, Q86Y26
Sequence of nutm1_human NUTM1, Q86Y26 (Q86Y26 whole entry): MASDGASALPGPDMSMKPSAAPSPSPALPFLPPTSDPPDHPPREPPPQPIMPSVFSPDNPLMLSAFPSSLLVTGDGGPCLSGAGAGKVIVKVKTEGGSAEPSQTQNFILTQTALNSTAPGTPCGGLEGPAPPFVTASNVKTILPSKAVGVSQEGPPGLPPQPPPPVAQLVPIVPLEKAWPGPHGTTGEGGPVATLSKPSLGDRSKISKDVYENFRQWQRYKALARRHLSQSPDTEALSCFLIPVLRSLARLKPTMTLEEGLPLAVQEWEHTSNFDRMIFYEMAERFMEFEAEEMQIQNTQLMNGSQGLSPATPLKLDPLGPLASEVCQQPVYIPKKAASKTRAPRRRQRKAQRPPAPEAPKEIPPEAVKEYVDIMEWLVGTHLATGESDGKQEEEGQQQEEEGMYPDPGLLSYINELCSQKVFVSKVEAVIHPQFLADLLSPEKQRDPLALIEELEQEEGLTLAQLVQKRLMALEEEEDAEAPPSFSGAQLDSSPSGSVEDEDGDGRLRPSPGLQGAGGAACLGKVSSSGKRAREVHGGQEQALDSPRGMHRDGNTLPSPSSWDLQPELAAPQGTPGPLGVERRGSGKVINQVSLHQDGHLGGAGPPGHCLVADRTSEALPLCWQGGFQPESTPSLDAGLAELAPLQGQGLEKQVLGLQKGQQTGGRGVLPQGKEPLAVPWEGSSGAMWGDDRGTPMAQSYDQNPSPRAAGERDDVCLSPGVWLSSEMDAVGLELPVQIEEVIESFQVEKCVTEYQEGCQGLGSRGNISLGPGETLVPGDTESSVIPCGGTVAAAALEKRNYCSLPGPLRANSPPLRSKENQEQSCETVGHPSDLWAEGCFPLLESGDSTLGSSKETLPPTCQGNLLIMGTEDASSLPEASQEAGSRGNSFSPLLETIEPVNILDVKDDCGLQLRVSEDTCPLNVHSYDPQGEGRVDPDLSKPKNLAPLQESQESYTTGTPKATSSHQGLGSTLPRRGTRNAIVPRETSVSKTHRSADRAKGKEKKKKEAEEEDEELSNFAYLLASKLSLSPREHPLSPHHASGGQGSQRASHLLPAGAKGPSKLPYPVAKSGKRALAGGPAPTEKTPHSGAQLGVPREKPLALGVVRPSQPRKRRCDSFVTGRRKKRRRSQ

effect of a mutation on the interaction	Variant
with no effect	K319E

Variants of: B3
Conditions: with grm2b_human GRAMD2B

effect of a mutation on the interaction	Variant
disrupting interaction strength	V75F

Variants of: B4
Conditions: with tuft1_human TUFT1, Q9NNX1

effect of a mutation on the interaction	Variant
with no effect	R167G

Variants of: B5
Conditions: with cep70_human CEP70, Q8NHQ1

effect of a mutation on the interaction	Variant
disrupting interaction strength	C381Y

Variants of: B6
Conditions: with traf2_human TRAF2, Q12933

effect of a mutation on the interaction	Variant
with no effect	S387C

Variants of: B7
Conditions: with mos_human MOS

effect of a mutation on the interaction	Variant
with no effect	R359S

Variants of: B8
Conditions: with cep70_human CEP70, Q8NHQ1

effect of a mutation on the interaction	Variant
with no effect	R268H
